The values below come from patent US20020028482A1, “NIP45 HUMAN HOMOLOG” (priority 1997, published 2002).

In one test the target is LacZ (Escherichia coli, UniProt P00722). Particulars: LacZ substrate.
In the next test the test system is mNFATp. The test is described as follows: yeast two hybrid assay, interaction with mNFATp. Particulars: colonies, FIG. 11 and FIG. 12. The format is binding, murine. As to the method: An hNIP45 AD-fusion construct is co-transformed into the yeast host EGY48 (CLONTECH, cat # K1609-1) with the original murine LexA-NFATp bait and reporter, pSH18-34 (CLONTECH, cat# K1609-1). The functional conservation of hNIP45 is assessed by its ability of interacting with the NFATp protein to activate the reporter gene expression. Hodge, M., et al., NF-AT-Driven Interleukin-4 Transcription Potentiated by NIP45, Science, 274:1903 (1996). See, Example VI infra.

In another test the test system is HepG2 cells. Particulars: overexpression in HepG2 cells; cited from earlier work.
A further test deals with T1, hNFAT1 (Homo sapiens, UniProt Q13469).
T1 construct: contains the coding region for 400-692 amino acid residues of hNFAT 1; expressed in transfected cells; host or cells: yeast strain EGY48/p8op-lacZ
T1 sequence (Q13469 400-692): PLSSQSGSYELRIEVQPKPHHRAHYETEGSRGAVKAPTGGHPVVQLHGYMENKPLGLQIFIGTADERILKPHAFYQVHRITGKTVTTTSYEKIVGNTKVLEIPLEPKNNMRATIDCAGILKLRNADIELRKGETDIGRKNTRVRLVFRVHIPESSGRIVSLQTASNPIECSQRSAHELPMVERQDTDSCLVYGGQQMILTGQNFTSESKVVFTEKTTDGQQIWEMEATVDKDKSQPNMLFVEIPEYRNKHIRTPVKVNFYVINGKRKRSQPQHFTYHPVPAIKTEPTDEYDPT
Briefly: yeast two hybrid assay, interaction with hNFAT1. The format is binding. Particulars: colonies, FIG. 11 and FIG. 12. The text has this:
A 879 bp DNA fragment, corresponding to positions 1418-2296 of hNFAT1 nucleic acid sequence (GenBank Accession number U43342), was PCR amplified via standard methods using Clontech human lymph node Marathon Ready cDNA as template. CLONTECH, Palo Alto, Calif. The resulting PCR product was cloned into the bait vector, plexA-BD (CLONTECH). The hybrid construct (plexA-BD-hNFAT1-BD) contains the coding region for 400-692 amino acid residues of hNFAT 1, which corresponds to the DNA binding region of the hNFAT 1 protein. The full length hNIP45H cNDA was cloned into prey vector pB42AD (CLONTECH). This hybrid construct (pB42AD-hNIP45H) contains the entire open reading frame of […].
Yeast strain EGY48/p8op-lacZ (CLONTECH) was transformed with the plexA-BD-hNFAT1-BD plasmid. […] Yeast strain EGY/p8op-lacZ/plexA-BD-hNFAT1-BD was subsequently transformed with pB42AD-hNIP45H prey construct. Transformants from SD/-UHW plates were subsequently tested on a 4-plate test (SD/-UHW, X-gal vs. GR/-UHW, X-gal, and SD/-UHWL vs. GR/-UHWL).

LacZ, sequence (P00722 whole entry, the tested form may be a part): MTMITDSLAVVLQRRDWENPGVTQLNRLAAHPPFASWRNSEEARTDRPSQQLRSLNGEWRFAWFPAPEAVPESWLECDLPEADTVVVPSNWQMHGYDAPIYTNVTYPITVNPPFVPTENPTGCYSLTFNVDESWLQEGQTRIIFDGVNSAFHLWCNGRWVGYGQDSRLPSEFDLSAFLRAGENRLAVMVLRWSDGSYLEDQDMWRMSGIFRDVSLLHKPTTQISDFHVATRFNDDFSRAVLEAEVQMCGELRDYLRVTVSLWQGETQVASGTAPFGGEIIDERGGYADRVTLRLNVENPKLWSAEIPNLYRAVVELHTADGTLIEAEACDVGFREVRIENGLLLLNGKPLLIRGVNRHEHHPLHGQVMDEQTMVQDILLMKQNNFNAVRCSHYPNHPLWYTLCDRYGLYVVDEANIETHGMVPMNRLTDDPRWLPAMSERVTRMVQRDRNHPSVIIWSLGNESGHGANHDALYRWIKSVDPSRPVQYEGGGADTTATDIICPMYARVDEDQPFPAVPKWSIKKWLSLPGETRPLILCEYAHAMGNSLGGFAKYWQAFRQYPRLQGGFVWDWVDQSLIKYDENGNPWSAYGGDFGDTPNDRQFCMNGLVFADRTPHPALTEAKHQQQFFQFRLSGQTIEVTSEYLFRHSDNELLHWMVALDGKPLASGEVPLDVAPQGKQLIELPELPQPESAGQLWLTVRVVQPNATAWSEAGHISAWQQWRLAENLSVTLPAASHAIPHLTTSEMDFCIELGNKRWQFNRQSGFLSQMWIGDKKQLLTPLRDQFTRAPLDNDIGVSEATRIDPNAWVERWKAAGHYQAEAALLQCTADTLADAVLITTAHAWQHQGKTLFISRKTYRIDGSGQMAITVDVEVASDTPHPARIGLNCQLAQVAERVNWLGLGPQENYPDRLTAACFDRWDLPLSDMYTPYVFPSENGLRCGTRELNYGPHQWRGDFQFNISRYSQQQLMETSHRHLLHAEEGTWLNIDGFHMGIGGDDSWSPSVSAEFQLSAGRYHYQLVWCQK
mNFATp, sequence (Q60591 394-576 limits assumed): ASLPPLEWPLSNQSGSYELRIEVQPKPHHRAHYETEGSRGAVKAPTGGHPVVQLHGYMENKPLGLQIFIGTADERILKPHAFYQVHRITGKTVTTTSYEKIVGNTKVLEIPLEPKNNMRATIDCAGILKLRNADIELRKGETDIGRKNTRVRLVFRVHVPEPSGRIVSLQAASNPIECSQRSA
Experimental for LacZ: (1) CPRG is used rather than ONPG. […] In assays SmM (10×Km) is used which we take to be approximately saturating.
Grow yeast cultures overnight. Dilute back to OD 0.05 to 0.1 next day and allow to continue growing. When they have reached an OD of about 1, make a set of dilutions in culture medium. Add 120 ul of each dilution to the wells of a microtitre plate. Start the reaction by addition of 30 ul reaction buffer and measure the initial rate of reaction (kinetic read over 10 minutes).

In the case of `O=S1(=O)OC(c2ccc(O)c(Cl)c2)(c2ccc(O[C@@H]3O[C@H](CO)[C@H](O)[C@H](O)[C@H]3O)c(Cl)c2)c2ccccc21` (stereo partly drawn) [CPRG, Chlorophenol red-b-D-galacopyranoside], the Km (in general, the substrate concentration at which the rate is half of its maximum) on LacZ is approximately 500 µM.

B1: mNIP45: murine NIP45, NF-ATp interacting protein, 412 amino acid residues, SEQ ID NO:4 (protein, listed as Mus musculus)
chain: MAEPLRGRGPRSRGGRGARRARGARGRCPRARQSPARLIPDTVLVDLVSDSDEEVLEVADPVEVPVARLPAPAKPEQDSDSDSEGAAEGPAGAPRTLVRRRRRRLLDPGEAPVVPVYSGKVQSSLNLIPDNSSLLKLCPSEPEDEADLTNSGSSPSEDDALPSGSPWRKKLRKKCEKEEKKMEEFPDQDISPLPQPSSRNKSRKHTEALQKLREVNKRLQDLRSCLSPKQHQSPALQSTDDEVVLVEGPVLPQSSRLFTLKIRCRADLVRLPVRMSEPLQNVVDHMANHLGVSPNRILLLFGESELSPTATPSTLKLGVADIIDCVVLASSSEATETSQELRLRVQGKEKHQMLEISLSPDSPLKVLMSHYEEAMGLSGHKLSFFFDGTKLSGKELPADLGLESGDLIEVWG
For the molecule B1, in the test with mNFATp, the “interaction with mNFATp” value is “interacts well”. Moreover, in the test with HepG2 cells, the “increase of endogenous IL-4 production” value is recorded as 200 fold. For the same molecule, the “interaction with hNFAT1” value in the test with hNFAT1 is “does not interact with hNFAT1 very well”.

B2: hNIP45: novel human NIP45 polypeptide, 419 amino acid residues, SEQ ID NO:3, IL-4 transcriptional trans-activator (protein, listed as Homo sapiens)
chain: MAEPVGKRGRWSGGSGAGRGGRGGWGGRGRRPRAQRSPSRGTLDVVSVDLVTDSDEEILEVATARGAADEVEVEPPEPPGPVASRDNSNSDSEGEDRRPAGPPREPVRRRRRLVLDPGEAPLVPVYSGKVKSSLRLIPDDLSLLKLYPPGDEEEAELADSSGLYHEGSPSPGSPWKTKLRTKDKEEKKKTEFLDLDNSPLSPPSPRTKSRTHTRALKKLSEVNKRLQDLRSCLSPKPPQGQEQQGQEDEVVLVEGPTLPETPRLFPLKIRCRADLVRLPLRMSEPLQSVVDHMATHLGVSPSRILLLFGETELSPTATPRTLKLGVADIIDCVVLTSSPEATETSQQLQLRVQGKEKHQTLEVSLSRDSPLKTLMSHYEEAMGLSGRKLSFFFDGTKLSGRELPADLGMESGDLIEVWG
As for B2, in the test with hNFAT1, the “interaction with hNFAT1” value is “interacts well”.
